According to US20190077860A1 (EISAI R AND D MANAGEMENT, published 2019):
Where a chain is given by its changes, count along the chain named. In names and notes the source's numbering stands. Values belong to the binder of their own block, whether it stands above or below them.

Key:
[1] = molecular target: T1, human EphA4 extracellular region-SEAP-His protein (human, UniProt P54764 20-547); assay: SPR, Ab captured
T1 construct: also called hEphA4-SEAP-His
Method: The binding affinity of each anti-EphA4 monoclonal humanized antibody obtained in Example 16 for human EphA4 was determined by surface plasmon resonance (SPR) using Biacore T200 (GE Healthcare). First, for the assay of antibody A, a rat anti-mouse IgG₁ antibody produced with a conventional method by immunizing rat with mouse IgG₁ antibody was immobilized on sensor chip CM5. The immobilization of the rat anti-mouse IgG1 antibody on sensor chip CM5 was performed by the amine coupling method using N-hydroxysuccinimide (NHS) and N-ethyl-N′-(3-dimethylaminopropyl)carbodiimide hydrochloride (EDC). Ethanolamine was used in blocking (the sensor chip and the reagents for immobilization were all manufactured by GE Healthcare). The antibody was diluted with a buffer solution for immobilization (10 mM sodium acetate, pH 4.5) and immobilized on the sensor chip according to the protocol attached to Biacore T200. For the assay of each humanized monoclonal antibody, a protein A chip (GE Healthcare, 29-1383-03) was used. Antibody A or the humanized monoclonal antibody was diluted with a running buffer solution HBS-EP (GE Healthcare), injected onto only flow cell 2 for 120 seconds, and captured (captured amount: approximately 30 to 60 RU). Subsequently, human EphA4 extracellular region-SEAP-His protein serially diluted in the range of 50, 16.7, 5.6, 1.9, and 0.6 nM using HBS-EP was sequentially added from the lower toward higher concentration sides without regeneration operation. Binding reaction curves were sequentially observed at the time of the addition (association phase, for 120 sec) and after the completion of the addition (dissociation phase, for 900 sec). After the completion of each observation, the sensor chip was regenerated by the addition of 3 M MgCl₂ (for 60 sec) or 10 mM Glycine-HCl pH 1.5 (for 30 sec). The obtained binding reaction curves were subjected to fitting analysis with 1:1 binding models using software BIA evaluation attached to the system to calculate the affinity (KD=kd/ka) for human EphA4 (Table 6).

[2] = molecular target: SEAP-His (UniProt P05187 23-511); assay: ELISA
Method: (§1) Each well of a 96-well plate (Nunc) was coated with a rabbit anti-6-His antibody (Bethyl Laboratories). Each well was […] After washing with 0.05% Tween 20/PBS (Nacalai Tesque) three times, the SEAP-His protein of human EphA1, EphA2, EphA3, EphA4, EphA5, EphA6, EphA7, EphA8, EphA10, EphB1, EphB2, EphB3, EphB4, or EphB6 was added (final concentration: 1 nM) to each well and incubated at room temperature for 1 hour. After washing three times, the humanized antibody was added to each well and incubated at room temperature for 1 hour. After washing three times, a horseradish peroxidase-labeled donkey […] antibody (Jackson ImmunoResearch Laboratories) was added thereto and incubated at room temperature for 1 hour. After washing three times, TMB Microwell Peroxidase Substrate System (Kirkegaard & Perry Laboratories (KPL)) was added to each well. After confirmation of moderate color development, an equal amount of a reaction stopping solution (1N H₂SO₄, Wako Pure Chemical Industries) was added to each well. The absorbance at 450 nm was read using a microplate reader (Thermo Fisher Scientific).

[3] = molecular target: T2, human EphA10 extracellular region-SEAP-His protein (human, UniProt Q5JZY3 34-565); assay: ELISA
T2 construct: extracellular domain; also called hEphA10-SEAP-His
T2 sequence (looked up): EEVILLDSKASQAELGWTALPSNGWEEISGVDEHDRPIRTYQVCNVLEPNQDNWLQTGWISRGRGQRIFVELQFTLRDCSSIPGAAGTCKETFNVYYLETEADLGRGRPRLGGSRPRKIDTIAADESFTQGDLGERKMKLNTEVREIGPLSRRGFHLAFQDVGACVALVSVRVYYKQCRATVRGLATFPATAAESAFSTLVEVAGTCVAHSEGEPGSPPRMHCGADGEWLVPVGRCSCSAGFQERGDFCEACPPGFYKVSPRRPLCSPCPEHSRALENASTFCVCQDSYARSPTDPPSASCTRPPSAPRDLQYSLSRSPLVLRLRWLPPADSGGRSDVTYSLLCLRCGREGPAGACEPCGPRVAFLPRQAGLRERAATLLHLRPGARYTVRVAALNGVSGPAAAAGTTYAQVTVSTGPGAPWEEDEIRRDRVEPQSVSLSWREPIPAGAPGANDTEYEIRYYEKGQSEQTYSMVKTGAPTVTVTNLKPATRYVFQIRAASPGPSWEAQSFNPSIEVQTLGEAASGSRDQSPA
Method: as §1

[4] = molecular target: T1, human EphA4 extracellular …; assay: competition ELISA, competitor human Ephrin A5-Fc
Method: Each anti-EphA4 monoclonal humanized antibody obtained in Example 16 was evaluated for its inhibitory activity against the binding between human EphA4 and its human ligand according to the following steps. Each well of a 96-well plate (Nunc) was coated with an anti-alkaline phosphatase antibody (Thermo Fisher Scientific). After incubation overnight at 4° C., each well was blocked with 1% BlockAce (DS Pharma Biomedical) at room temperature for 1 hour. After washing with 0.05% Tween 20/PBS (Thermo Fisher Scientific) three times, the human EphA4 extracellular region-SEAP-His protein obtained by the method of Example 2 was added (final concentration: 10 nM) to each well and incubated at room temperature for 1 hour. After washing three times, a ligand and each serially diluted humanized antibody of antibody A (0, 0.003, 0.01, 0.03, 0.1, 0.3, 1, 3, 10, 30, 100, 300, 1000, and 3000 nM) were added to each well. The ligand used was biotinylated human Ephrin A5-Fc chimera (R&D Systems, final concentration: 0.7 nM). After incubation at room temperature for 1 hour and subsequent washing three times, horseradish peroxidase-labeled streptavidin (GE Healthcare) was added thereto and incubated at room temperature for 1 hour. After washing three times, a TMBZ (3,3′,5,5′-tetramethylbenzidine, Sigma-Aldrich) solution was added to each well and incubated at room temperature for 2 minutes. An equal amount of a reaction stopping solution (1N H₂SO₄, Wako Pure Chemical Industries) was added to each well. The absorbance at 450 nm was read using a microplate reader (PerkinElmer).

Sequence of SEAP-His (P05187 23-511): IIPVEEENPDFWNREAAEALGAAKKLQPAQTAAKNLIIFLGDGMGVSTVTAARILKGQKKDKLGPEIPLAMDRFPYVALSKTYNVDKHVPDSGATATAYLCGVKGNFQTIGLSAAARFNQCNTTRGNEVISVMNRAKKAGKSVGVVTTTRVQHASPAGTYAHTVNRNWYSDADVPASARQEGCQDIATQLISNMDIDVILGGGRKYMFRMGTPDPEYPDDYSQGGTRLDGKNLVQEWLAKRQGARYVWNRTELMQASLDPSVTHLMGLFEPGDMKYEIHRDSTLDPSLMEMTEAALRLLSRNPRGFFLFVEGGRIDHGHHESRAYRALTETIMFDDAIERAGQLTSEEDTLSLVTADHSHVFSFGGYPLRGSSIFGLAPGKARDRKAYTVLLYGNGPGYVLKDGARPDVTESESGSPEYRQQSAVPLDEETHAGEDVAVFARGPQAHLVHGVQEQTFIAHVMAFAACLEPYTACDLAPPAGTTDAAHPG
T1 sequence (P54764 20-547): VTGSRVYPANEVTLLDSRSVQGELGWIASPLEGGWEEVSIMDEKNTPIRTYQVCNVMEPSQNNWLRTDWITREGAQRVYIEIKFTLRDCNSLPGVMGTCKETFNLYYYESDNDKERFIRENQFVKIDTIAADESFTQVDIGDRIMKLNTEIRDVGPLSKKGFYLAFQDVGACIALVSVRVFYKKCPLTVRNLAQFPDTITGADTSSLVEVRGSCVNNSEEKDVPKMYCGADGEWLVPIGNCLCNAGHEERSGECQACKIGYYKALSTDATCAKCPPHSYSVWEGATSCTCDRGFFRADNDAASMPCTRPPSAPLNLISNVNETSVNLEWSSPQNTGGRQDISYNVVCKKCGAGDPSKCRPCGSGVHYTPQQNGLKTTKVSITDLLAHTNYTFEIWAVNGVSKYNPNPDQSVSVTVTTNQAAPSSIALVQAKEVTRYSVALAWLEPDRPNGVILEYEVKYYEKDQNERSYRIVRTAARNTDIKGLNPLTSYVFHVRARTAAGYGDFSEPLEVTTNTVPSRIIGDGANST

B1: antibody A (antibody, mouse IgG1, kappa, V domains shown)
VH: QIQLVQSGPELKKPGETVKISCKASGYTFTDYSMHWVKQAPGKGLKWMGWINTETGEPTYADDFKGRFAFSLETSASTAYLQINNLKNEDTATYFCARIPLYYYGSRYWYFDVWGAGTTVTVSS
VL: DIQMTQSPASLSVSVGETVTITCRASENIYRNLAWYQQKQGKSPQLLVYAATNLADGVPSRFSGSGSGTQYSLKINSLQSEDFGSYYCQHFWGTPWTFGGGTKLEIKR
notes: mouse IgG1 heavy chain, kappa light chain; purified from hybridoma supernatant; also called anti-EphA4 monoclonal antibody; antibody A-IgG
Kd [1]: 0.6 nM | koff [1]: 0.00025 s⁻¹ | kon [1]: 420000 M⁻¹ s⁻¹

B2: humanized antibody No. 76 (antibody, human IgG1, kappa)
heavy: QVQLVQSGSELKKPGASVKVSCKASGYTFTDYSMHWVRQAPGQGLKWMGWINTETGEPTYAQGFTGRFVFSLDTSVSTAYLQISSLKAEDTAVYYCARIPLYYYGSRYWYFDVWGQGTTVTVSSASTKGPSVFPLAPSSKSTSGGTAALGCLVKDYFPEPVTVSWNSGALTSGVHTFPAVLQSSGLYSLSSVVTVPSSSLGTQTYICNVNHKPSNTKVDKRVEPKSCDKTHTCPPCPAPPAAAPSVFLFPPKPKDTLMISRTPEVTCVVVDVSHEDPEVQFNWYVDGVEVHNAKTKPREEQFNSTFRVVSVLTVVHQDWLNGKEYKCKVSNKGLPAPIEKTISKTKGQPREPQVYTLPPSREEMTKNQVSLTCLVKGFYPSDIAVEWESNGQPENNYKTTPPMLDSDGSFFLYSKLTVDKSRWQQGNVFSCSVMHEALHNHYTQKSLSLSPG
light: DIQMTQSPSSLSASVGDRVTITCRASENIYRNLAWYQQKPGKAPKLLVYAATNLADGVPSRFSGSGSGTDYTLTISSLQPEDFATYYCQHFWGTPWTFGQGTKVEIKRTVAAPSVFIFPPSDEQLKSGTASVVCLLNNFYPREAKVQWKVDNALQSGNSQESVTEQDSKDSTYSLSSTLTLSKADYEKHKVYACEVTHQGLSSPVTKSFNRGEC
notes: human Ig kappa; also called L1-4/HA2
Kd [1]: 1 nM | koff [1]: 0.00034 s⁻¹ | kon [1]: 330000 M⁻¹ s⁻¹ | A450 as % of hEphA4-SEAP-His [2]: 5.5% | A450 as % of hEphA4-SEAP-His [3]: 4.7% | IC50 [4]: 2.9 nM

B6: humanized antibody No. 67 (antibody, human IgG1, kappa)
heavy: B2 heavy with V2I
light: B2 light
notes: human Ig kappa; also called L1-4/HA4
Kd [1]: 1.1 nM | koff [1]: 0.00035 s⁻¹ | kon [1]: 330000 M⁻¹ s⁻¹ | A450 as % of hEphA4-SEAP-His [2]: 5% | A450 as % of hEphA4-SEAP-His [3]: 4.6% | IC50 [4]: 4.4 nM

B8: humanized antibody No. 69 (antibody, human IgG1, kappa)
heavy: B2 heavy with V2I, Q62D, G63D, T65K
light: B2 light
notes: human Ig kappa; also called L1-4/HK4
Kd [1]: 1.1 nM | koff [1]: 0.00037 s⁻¹ | kon [1]: 340000 M⁻¹ s⁻¹ | A450 as % of hEphA4-SEAP-His [2]: 6.1% | A450 as % of hEphA4-SEAP-His [3]: 5.4% | IC50 [4]: 3.1 nM

B9: humanized antibody No. 75 (antibody, human IgG1, kappa)
heavy: B2 heavy with K46E
light: B2 light
notes: constant region: human IgG1 CH1 and hinge, human IgG2 CH2 and CH3 with V234A, G237A, no C-terminal Lys; human Ig kappa; also called L1-4/HA1
Kd [1]: 1.2 nM | koff [1]: 0.00042 s⁻¹ | kon [1]: 380000 M⁻¹ s⁻¹ | A450 as % of hEphA4-SEAP-His [2]: 4.4% | A450 as % of hEphA4-SEAP-His [3]: 4.4% | IC50 [4]: 2.9 nM

B13: humanized antibody No. 77 (antibody, human IgG1, kappa)
heavy: B2 heavy with K46E, Q62D, G63D, T65K
light: B2 light
notes: human Ig kappa; also called L1-4/HK1
Kd [1]: 1.4 nM | koff [1]: 0.00058 s⁻¹ | kon [1]: 410000 M⁻¹ s⁻¹ | A450 as % of hEphA4-SEAP-His [2]: 4.7% | A450 as % of hEphA4-SEAP-His [3]: 4.5% | IC50 [4]: 3.5 nM

Other lines, results leading:

Kd [1]: 1.9 nM | koff [1]: 0.00054 s⁻¹ | kon [1]: 290000 M⁻¹ s⁻¹ | A450 as % of hEphA4-SEAP-His [2]: 6.5% | A450 as % of hEphA4-SEAP-His [3]: 5.6% | IC50 [4]: 3.7 nM
B3: humanized antibody No. 83 (antibody, human IgG1, kappa)
heavy: B2 heavy with V2I
light: B2 light with V48L, P80S
notes: human Ig kappa; also called L1-5/HA4

Kd [1]: 1.5 nM | koff [1]: 0.00046 s⁻¹ | kon [1]: 310000 M⁻¹ s⁻¹ | A450 as % of hEphA4-SEAP-His [2]: 6.1% | A450 as % of hEphA4-SEAP-His [3]: 5.6% | IC50 [4]: 4 nM
B4: humanized antibody No. 86 (antibody, human IgG1, kappa)
heavy: B2 heavy with V2I, Q62D, G63D, T65K
light: B2 light with V48L, P80S
notes: human Ig kappa; also called L1-5/HK4

Kd [1]: 1.5 nM | koff [1]: 0.00051 s⁻¹ | kon [1]: 350000 M⁻¹ s⁻¹ | A450 as % of hEphA4-SEAP-His [2]: 5.5% | A450 as % of hEphA4-SEAP-His [3]: 5.2% | IC50 [4]: 3 nM
B5: humanized antibody No. 87 (antibody, human IgG1, kappa)
heavy: B2 heavy with K46E
light: B2 light with K45Q, V48L
notes: human Ig kappa; also called L1-6/HA1

Kd [1]: 1.1 nM | koff [1]: 0.00039 s⁻¹ | kon [1]: 340000 M⁻¹ s⁻¹ | A450 as % of hEphA4-SEAP-His [2]: 5.3% | A450 as % of hEphA4-SEAP-His [3]: 5.2% | IC50 [4]: 2.8 nM
B7: humanized antibody No. 78 (antibody, human IgG1, kappa)
heavy: B2 heavy with Q62D, G63D, T65K
light: B2 light
notes: human Ig kappa; also called L1-4/HK2

Kd [1]: 1.6 nM | koff [1]: 0.00054 s⁻¹ | kon [1]: 340000 M⁻¹ s⁻¹ | A450 as % of hEphA4-SEAP-His [2]: 5% | A450 as % of hEphA4-SEAP-His [3]: 4.8% | IC50 [4]: 4 nM
B10: humanized antibody No. 81 (antibody, human IgG1, kappa)
heavy: B2 heavy with K46E
light: B2 light with V48L, P80S
notes: human Ig kappa; also called L1-5/HA1

Kd [1]: 1.6 nM | koff [1]: 0.00046 s⁻¹ | kon [1]: 290000 M⁻¹ s⁻¹ | A450 as % of hEphA4-SEAP-His [2]: 5.9% | A450 as % of hEphA4-SEAP-His [3]: 5.4% | IC50 [4]: 4.1 nM
B11: humanized antibody No. 82 (antibody, human IgG1, kappa)
heavy: B2 heavy
light: B2 light with V48L, P80S
notes: human Ig kappa; also called L1-5/HA2

Kd [1]: 1.6 nM | koff [1]: 0.0005 s⁻¹ | kon [1]: 310000 M⁻¹ s⁻¹ | A450 as % of hEphA4-SEAP-His [2]: 5.3% | A450 as % of hEphA4-SEAP-His [3]: 5% | IC50 [4]: 4 nM
B12: humanized antibody No. 85 (antibody, human IgG1, kappa)
heavy: B2 heavy with Q62D, G63D, T65K
light: B2 light with V48L, P80S
notes: human Ig kappa; also called L1-5/HK2

Kd [1]: 1.7 nM | koff [1]: 0.00056 s⁻¹ | kon [1]: 350000 M⁻¹ s⁻¹ | A450 as % of hEphA4-SEAP-His [2]: 5.1% | A450 as % of hEphA4-SEAP-His [3]: 5.1% | IC50 [4]: 4.6 nM
B14: humanized antibody No. 84 (antibody, human IgG1, kappa)
heavy: B2 heavy with K46E, Q62D, G63D, T65K
light: B2 light with V48L, P80S
notes: human Ig kappa; also called L1-5/HK1
